Measured values: patent US20230406912A1, “HUMANISED ANTIBODIES AGAINST PATHOGENIC FUNGI” (priority 2020, published 2023)

Assays:
[1] = tested on: β-1,3-glucans on the surface of C. auris; assay: Recognition of C. auris by flow cytometry and confocal microscopy; format: cell-based; settings: 12 μg/ml mAb
Protocol: From an overnight inoculum, C. auris cells were washed with RPMI+MOPS (0.165 M, pH 7) and 3.0×10^6 cells were pelleted, suspended in Phosphate buffered saline (PBS) containing 3% (w/v) BSA (Bovine Serum Albumin—Sigma Aldrich) and put in contact with 12 μg/ml of the humanised mAb 2G8 for 1 hour at room temperature. The cells were then washed with PBS and marked with anti-human IgG FITC antibody 1:150 in PBS+3% BSA for 1 hour. The cells were then washed and fixed with paraformaldehyde 4% in PBS 1 hour at 4° C. After fixing and washing with PBS, the pellet was suspended in 400 μl of PBS and splitted in two tubes. The samples were analysed using flow cytometry and confocal microscopy, respectively.
A Flow cytometer (FACScanto II, BDBioscences, Erembodegem, Belgium), equipped with three lasers (488 nm, 633 nm, 405 nm) was employed to collect and quantitate FITC fluorescence from different samples. Both autofluorescence and fluorescence derived from a specific binding of FITC-conjugated secondary Ab were quantitated by Flow Cytometry. […] The histogram CTRL evaluates the background from aspecific binding of FITC-conjugated secondary Ab, enabling to fix the threshold defining the positivity for the humanised mAb H5/K1 (treated). 97% of events express the antigen (treated panel). The expression was precisely quantitated by MFI values: the fold of increase is 164, when compared to control (FIG. 12B). Light grey events in FIG. 12A histograms represent cells outside the scatter area mainly occupied by the cells: i.e. aggregates or increase in cell size (as during senescence).

[2] = ELISA assay on laminarin-coated plates; format: binding
Protocol: The activity of the purified antibody was then tested by ELISA assay. 96-well plates were coated with 50 μg/ml Laminarin (Sigma-Aldrich, L9634) in 0.05 M carbonate buffer pH 9.6 overnight at 4° C. Nonspecific interactions were blocked with 100 μL/well blocking solution, 3% (w/v) BSA in PBS-Tween 20 (8 g/L NaCl, 0.2 g/L KH2PO4, 2.9 g/L Na2HPO4·12 H2O, 0.2 g/L KCI, 0.05% (v/v) Tween 20, pH 7.4) at 37° C. for 1 h. The plates were then incubated with decreasing concentrations of hmAb 2G8_first approach (comparative purpose) (from 3.12 μg/ml to 0.003 μg/ml, each concentration was tested in triplicate) in blocking solution for 2 h at 37° C. At the same temperature and for the same time, 100 μL Goat anti-human-HRP diluted 1:1000 in blocking solution was poured in each well. After every single passage the plates were washed 5 times with PBS-Tween 20. To reveal the binding, 100 μl of 5 mg-ABTS tablet (Roche Diagnostics) dissolved in 12 ml of sodium citrate (0.05 M, pH 3) and supplemented with 1:1000 dilution hydrogen peroxide (Carlo Erba) was added and after 15, 30, 45 and 60 min the absorbance at 405 nm was measured. For the whole measuring time the plates were left in the dark. IC50 analysis of ELISA test was performed with Prism. The TEST was performed in triplicate.
The surnatants collected from the obtained humanised mAb were tested in ELISA test.
Four supernatants from hmAb according to the invention (H5/K3; H5/K1; H5/K7; H5/K5) were purified to confirm the data. 8 scalar dilutions, starting from 5 μg/ml, were tested.
The purified humanised mAb 2G8 H5/K1 was then tested in an ELISA assay using laminarin as a target.

C. auris = assay: Growth inhibition assay (CFU count); format: cell-based; settings: 18 h at 37° C.
Protocol: The growth inhibitory activity of humanised mAb 2G8 H5/K1 was tested as reported in W. Magliani et al, Nature Biotech. 1997; 15:155-158 with some modifications. In brief, 150-250 cells of C. auris in 10 μl of PBS were incubated with 100 μl of humanised mAb 2G8 at 250, 100 and 50 μg/ml (each concentration was tested in triplicate) and incubated for 18 h at 37° C. The inhibition was evaluated by seeding the yeast on PDA. The plates were incubated at 37° C. for 48 h and the inhibition was calculated by count of the CFU. The assay was performed in triplicate.

[3] = tested on: C. auris adhesion to HeLa cells; assay: Adhesion assay, fungal adhesion to HeLa cell monolayer; format: cell-based; settings: 12 μg/ml, HeLa:yeast 1:1, 1 hour
Protocol: In order to investigate the protective effect of hmAb 2G8 H5/K1 in preventing fungal adhesion to human cells commonly known to be preferred targets, C. auris cells were left adhering to a monolayer of HeLa cells together with the humanised mAb H5/K1, to reproduce an infection-medication scenario. 1.0×10^4 cervical cancer cells HeLa were suspended in RPMI+*10% FBS (pH 7) and plated in a 96-well plate for 2 hours at 37° C.+5% CO2. After incubation, the cells not attached at the bottom of the wells were washed away and 1.0×10^4 cells of C. auris suspended in RPMI+MOPS (0.165 M, pH 7) were added to reach a 1:1 ratio HeLa:yeast cells. Together with the yeast, 12 μg/ml of the humanised mAb 2G8 were added. PBS was used in the control sample. The plate was left at 37° C. for 1 hour and after washing 5 times, HeLa cells were lysed with PBS 0.1% Triton X100 (15 min. RT). The suspension was plated in PDA plate and incubated at 37° C. for 48 hours. This experiment has been repeated two times in triplicate.

B1: hmAb 2G8 H5/K1: humanised anti β-1,3 glucan mAb; heavy chain variable region H5 (SEQ ID NO: 22), light chain variable region K1 (SEQ ID NO: 15) (antibody, V domains shown)
VH: QVQLQQSGAELKKPGASVKISCKASGYTLSSYWLEWVRQRPGQGLEWIGEILPGSGSTNYNEKFKGRATFTADTSTNTAYMELSSLTSEDSAVYYCAREGWYFDVWGQGTTVTVSS
VL: DVVMTQSPLSLPVTLGQPASISCRSSQSLLYSNGNTHLNWFQQRPGQSPRRLIYLVSNRDSGVPDRFSGSGSGTDFTLKISRVEAEDVGVYYCVQGTHFPYTFGGGTKLEIK
modifications: VH-H5; VL-K1
[1]; confocal microscopy, FITC signal
  binding on confocal images: recognize and bind β-1,3-glucans on the surface of C. auris
[1]; flow cytometry
  MFI fold of increase compared to control: 164 fold
[1]; flow cytometry, 1 hour
  events expressing the antigen (FITC positive): 97%
[2]; ELISA
  activity / affinity compared with murine 2G8: performs better than the original murine one
[2]; ELISA of supernatants of humanised mAbs
  Abs 405 nm: 3.48
[2]; purified supernatants, 8 scalar dilutions from 5 μg/ml
  performance in ELISA assay of purified hmAbs: best performer
C. auris; 50 μg/ml
  inhibition of yeast cell growth: over 60%
C. auris; 100 μg/ml
  inhibition of yeast cell growth: over 70%
C. auris; 250 μg/ml
  inhibition of yeast cell growth: over 70%
[3]
  reduction in fungal adhesion to mammalian cells: 51.5%
